Assay results reported in the supplement of paper PMC7877785.
± gives the uncertainty stated by the source.

Test: self-splicing fitness, log relative to wild type (ln ratio); higher = more splicing; Tetrahymena group I intron in knt gene, E. coli kanamycin selection, DiMSum; sequences stand for … in CUCUCU…GGAGGGAAAAGUUAUCAGGCAUGCACCUGGUAGCUAGUCUUUAAACCAAUAGAUUGCAUCGGUUUAAAAGGCAAGACCGUCAAAUUGCGGGAAAGGGGUCAACAGCCGUUCAGUACCAAGUCUCAGGGGAAACUUUGAGAUGGCCUUGCAAAGGGUAUGGUAAUAAGCUGACGGACAUGGUCCUAACCACGCAGCCAAGUCCUAAGUCAACAGAUCUUCUGUUGAUAUGGAUGCAGUUCACAGACUAAAUGUCGGUCGGGGAAGAUGUAUUCUUCUCAUAAGAUAUAGUCGGACCUCUCCUUAAUGGGAGCUAGCGGAUGAAGUGAUGCAACACUGGAGCCGCUGGGAACUAAUUUGUAUGCGAAAGUAUAUUGAUUAGUUUUGGAGUACUCGUGGUCG
Method in brief: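 The eight P1ex-region nucleotides of an intron in the knt kanamycin-resistance gene on pET-22b(+) were all randomised and the library put into E. coli BL21(DE3). Six replicate transformations were grown overnight at 37°C or 30°C on LB agar with or without 25 μg/mL kanamycin, together with 100 μg/mL carbenicillin, 50 μM IPTG and 0.2% rhamnose. Colonies were pooled and amplicon-sequenced on an Illumina HiSeq 2500. Fitness from DiMSum is the error-weighted combination of wild-type-normalised replicate fold changes, kanamycin over none.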

Row | Sequence | self-splicing fitness (ln) (30 °C) | self-splicing fitness (ln) (37 °C)
1 | UUUCAGCAAUAUUACGUAGG | -0.515 ± 0.068 | -0.741 ± 0.11
2 | GGGUAGCAAUAUUACGACCU | -2.3 ± 0.36 | 
3 | GUAAAGCAAUAUUACGUGGU | -3.26 ± 0.12 | -1.11 ± 0.095
4 | CGUCAGCAAUAUUACGAGAC | -2.95 ± 0.38 | -1.9 ± 0.32
5 | AGCCAGCAAUAUUACGAUAA | -4.66 ± 0.46 | -2.89 ± 0.17
6 | GCACAGCAAUAUUACGGGAG | -1.96 ± 0.1 | -1.47 ± 0.12
7 | GGGCAGCAAUAUUACGUCCC | -2.38 ± 0.46 | 
8 | GAAGAGCAAUAUUACGGACC | -1.57 ± 0.14 | -0.884 ± 0.19
9 | AUCUAGCAAUAUUACGGCUC | -0.871 ± 0.16 | -0.185 ± 0.19
10 | CGGAAGCAAUAUUACGCCUG | -1 ± 0.098 | -0.724 ± 0.12
11 | CCAUAGCAAUAUUACGGUAC | -3.2 ± 0.19 | -3.05 ± 0.27
12 | UAACAGCAAUAUUACGCCCC | -1.03 ± 0.28 | -0.834 ± 0.47
13 | GCGUAGCAAUAUUACGACUG | -1.54 ± 0.17 | -0.415 ± 0.17
14 | AUAGAGCAAUAUUACGUUCC | -2.27 ± 0.22 | -1.53 ± 0.23
15 | AGAGAGCAAUAUUACGAUAG |  | -0.994 ± 0.49
16 | CAUGAGCAAUAUUACGUCGU | -3.75 ± 0.18 | -3.34 ± 0.19
17 | UUCGAGCAAUAUUACGGCGA | -2.23 ± 0.17 | -0.638 ± 0.18
18 | GGAGAGCAAUAUUACGCCUC | -3.07 ± 0.36 | 
19 | GAUCAGCAAUAUUACGAAUG | -1.15 ± 0.075 | -0.0569 ± 0.11
20 | UUAUAGCAAUAUUACGAUUC | -2.51 ± 0.27 | -1.17 ± 0.31
21 | CGGUAGCAAUAUUACGCCCA | 0.153 ± 0.1 | 0.145 ± 0.17
22 | CCAAAGCAAUAUUACGCGUU | -3.79 ± 0.12 | -2.89 ± 0.16
23 | CUCAAGCAAUAUUACGAGCG | -3 ± 0.15 | -1.31 ± 0.12
24 | UAAUAGCAAUAUUACGAUGG | -3.31 ± 0.16 | -1.18 ± 0.13
25 | AAUCAGCAAUAUUACGUGGU | -1.65 ± 0.088 | -0.981 ± 0.11
26 | AGGCAGCAAUAUUACGAACU | 0.174 ± 0.095 | 0.719 ± 0.12

Row | Sequence | self-splicing fitness (ln) (30 °C) | self-splicing fitness (ln) (37 °C)
27 | UGUUAGCAAUAUUACGUACG | -0.624 ± 0.17 | 0.229 ± 0.22
28 | UGGCAGCAAUAUUACGAUGU | -4.09 ± 0.3 | -1.67 ± 0.34
29 | UACUAGCAAUAUUACGAUCC | -3.14 ± 0.36 | -2.84 ± 0.38
30 | UCCCAGCAAUAUUACGUUCU | -3.47 ± 0.21 | -2.5 ± 0.22
31 | CCUUAGCAAUAUUACGCUAA | -3.35 ± 0.4 | -1.97 ± 0.2
32 | ACGUAGCAAUAUUACGCGGG | -2.32 ± 0.12 | -0.863 ± 0.11
33 | GGCAAGCAAUAUUACGUCGG | -3.42 ± 0.2 | -2.47 ± 0.32
34 | CUACAGCAAUAUUACGACGA | -2.65 ± 0.15 | -2.02 ± 0.18
35 | AUAGAGCAAUAUUACGACCA | -2.34 ± 0.18 | -1.49 ± 0.27
36 | CGACAGCAAUAUUACGGCUA | -2.5 ± 0.2 | -1.39 ± 0.14
37 | GUUUAGCAAUAUUACGGCAC | -0.0568 ± 0.4 | -0.227 ± 0.43
38 | GUAAAGCAAUAUUACGAAUG | -2.8 ± 0.14 | -1.23 ± 0.2
39 | GCCGAGCAAUAUUACGUAUU | -3.72 ± 0.21 | -1.9 ± 0.15
40 | UGCAAGCAAUAUUACGUUGC | -3.3 ± 0.31 | -3.31 ± 0.39
41 | CUUUAGCAAUAUUACGGGCA | -3.41 ± 0.26 | -2.67 ± 0.21
42 | ACCAAGCAAUAUUACGGCGU | -1 ± 0.05 | 0.0505 ± 0.064
43 | CUGAAGCAAUAUUACGACAG | -0.755 ± 0.063 | 0.511 ± 0.11
44 | UGCGAGCAAUAUUACGGGUG | -1.72 ± 0.11 | -1.49 ± 0.12
45 | CCGGAGCAAUAUUACGGCAC |  | -0.904 ± 0.44
46 | GUCAAGCAAUAUUACGAAUU | -3.06 ± 0.18 | -1.82 ± 0.17
47 | AGGCAGCAAUAUUACGCUUA | -0.31 ± 0.1 | -0.299 ± 0.099
48 | CGUAAGCAAUAUUACGUAGA | -4.43 ± 0.3 | -3.25 ± 0.29
49 | AUCGAGCAAUAUUACGUAUC | -2.86 ± 0.35 | -3.28 ± 0.37
50 | CGUCAGCAAUAUUACGAUCG | -1.74 ± 0.093 | -1.61 ± 0.11
51 | GACUAGCAAUAUUACGAUAC | -1.31 ± 0.07 | -0.489 ± 0.092
52 | CACGAGCAAUAUUACGAACC |  | -1.7 ± 0.32

Row | Sequence | self-splicing fitness (ln) (30 °C) | self-splicing fitness (ln) (37 °C)
53 | UCCGAGCAAUAUUACGACUG | -2.56 ± 0.34 | -1.76 ± 0.37
54 | GGUGAGCAAUAUUACGCUAA | -3.69 ± 0.35 | -1.78 ± 0.21
55 | UGAUAGCAAUAUUACGUUCG | -0.432 ± 0.076 | 0.4 ± 0.1
56 | UAGUAGCAAUAUUACGAACG | -0.961 ± 0.13 | -0.0932 ± 0.15
57 | UUGAAGCAAUAUUACGCAAC | -1.97 ± 0.25 | -2.43 ± 0.39
58 | AAUAAGCAAUAUUACGUCUC | -1.68 ± 0.11 | -0.799 ± 0.13
59 | CCUGAGCAAUAUUACGCGCU | -4.19 ± 0.39 | -2.1 ± 0.24
60 | AGGGAGCAAUAUUACGAACA | -3.22 ± 0.45 | -1.72 ± 0.31
61 | AUAGAGCAAUAUUACGCGUG | -0.385 ± 0.11 | -1.09 ± 0.13
62 | UGCCAGCAAUAUUACGGGUC | -3.53 ± 0.23 | -2.34 ± 0.18
63 | UUUUAGCAAUAUUACGGGCG | -0.356 ± 0.12 | -0.216 ± 0.19
64 | GCCUAGCAAUAUUACGUAUG | -3.92 ± 0.16 | -2.61 ± 0.13
65 | UCAAAGCAAUAUUACGUAAA | -1.73 ± 0.13 | -1.94 ± 0.21
66 | UCCUAGCAAUAUUACGCCCG |  | -2.38 ± 0.42
67 | GCACAGCAAUAUUACGCGUG | -3.87 ± 0.2 | -2.35 ± 0.18
68 | AUGAAGCAAUAUUACGAGCC | -3.01 ± 0.38 | -3.27 ± 0.38
69 | CGACAGCAAUAUUACGAGAU | -3.16 ± 0.23 | -2.01 ± 0.21
70 | UUGCAGCAAUAUUACGGAAC | -2.24 ± 0.32 | 
71 | CGCCAGCAAUAUUACGACUA | -2.15 ± 0.2 | -2.13 ± 0.2
72 | AUCAAGCAAUAUUACGGGAA | -1.87 ± 0.13 | -0.563 ± 0.12
73 | UAUCAGCAAUAUUACGCUCA | -0.0488 ± 0.092 | 0.0773 ± 0.11
74 | ACGGAGCAAUAUUACGAUUC | -2.11 ± 0.32 | 
75 | CCCUAGCAAUAUUACGAUCC |  | -1.26 ± 0.45
76 | GCUUAGCAAUAUUACGACCG | -1.2 ± 0.26 | -1.19 ± 0.29
77 | UACUAGCAAUAUUACGAGAA | -1.6 ± 0.33 | -0.769 ± 0.22
78 | GAUAAGCAAUAUUACGAGGC |  | -2.76 ± 0.44
